Data set [1] can be described thus: OYE hydrogenation activity screen, NADPH oxidation at 340 nm. It counts as biochemical. As to conditions: 1 mM substrate, 0.25 mM NADPH, 2.5 μg protein; cut-off 0.05 U/mg protein; ND = not detected. As for the experimental part: 25 putative OYE genes (Table 1) were cloned based on the Pfam domain of the FMN oxidoreductase family PF00724. Purified OYEs were screened for hydrogenation activity against acrolein, 2-cyclohexn-1-one, cis,cis-muconic acid, trans,trans-muconic acid, and 2-hexendioic acid. Substrate specificity was measured spectrophotometrically in 96-well plates by following incubation for 20 min at room temperature in the anaerobic chamber. Buffers and reagents were also degassed and sparged with Ar. Reaction mixtures contained potassium phosphate (50 mM and pH 7.0), NaCl (10 mM), NADPH (0.25 mM), various substrates (1 mM) and protein (2.5 μg) in a final volume of 200 μL. Enzyme reactions were monitored by following the decrease in absorbance at 340 nm (ε340 nm=6,200/M·cm) as a measure of the conversion of the cofactor NADPH to NADP+.

Data set [2] is described as follows: AR reductase activity, NAD(P)H oxidation at 340 nm. It counts as biochemical. As to conditions: 10 mM, ND = no activity was detected. As for the experimental part: Enzyme activity of purified ARs was measured spectrophotometrically in 96-well plates Reaction mixtures contained 100 mM HEPES buffer (pH 7.5), 0.4 mM NADH/NADPH, 10 mM adipaldehyde or butylaldehyde, and proteins (10 μg for adipaldehyde screen, 2 μg for butyraldehyde screen) in a final volume of 200 μL Reaction mixture for adipaldehyde screening contained 1.8% DMSO. Enzyme reactions were monitored by following the decrease in absorbance at 340 nm (ε340 nm=6,220/M·cm) due to oxidation of NAD(P)H to NAD(P)+.

B1: BH1481: OYE protein from Bacillus halodurans C-125 (protein)
chain: MEHKLFSSYVVKGVTLKNRIVMSPMCMYSSDQKDGKIRPFHISHYESRAAGQVGLIIVEATAVTPQGRISPYDLGIWSDDHISGLTETVERIHAHGAKAAIQLAHAGRKAELDGPIIAPSAISYDKMKTPDAMTEEQISETIEAFKLGALRAKKAGFDIIEIHGAHGYLINEFLSPLTNKRTDAYGGSLENRYRLLREIISEIQTVWDGPLFVRISAAEYAEGGNELSDFITLAKWMKKQGIDLIDCSSGAVVPAPIPVYPGYQVPLAEAIRHEANIATGAVGLITSGIQAEEILQNERADLIFVARELLRNPYWPREAALELGTTISGPSQYDRAWL
For B1, the “Activity [U/mg protein] 2-cyclohexen-1-one” value in data set [1] came out at 0.13 U/mg protein.

B2: CV_2177: aldehyde reductase (AR) from Chromobacterium violaceum (protein)
chain: MRRLEGKQALITGGTSGIGLETAKQFLAEGAKVAITGRSEAGLAQANEVLGGRALLLKSDAGSLDDQRALPAQLRSHGWSRLDAAYLNAGDVTHLPLADWSEADFDRVMAVNLKGPFFLLQALSPLLANPSSVILCGSVGARIGVPSSSAYAASKAGLLSLARTLSAEWLDRGIRVNGLSPGPTHTPAFGKLGMPEDELPALRDRIRKLVPLGRLGRPEELAKAAVFLASDESSYMLGSELLVDGGVGNV
For B2, the “Activity [U/mg protein] Butyraldehyde” value in data set [2] was found to be 0.151 ± 0.054 U/mg protein.

B3: RHA03305: OYE protein from Rhodococcus sp. RHA1 (protein)
chain: MQHTSTTASTLFSPLKLGSTELANRVALAPMTRVSGDEDGSANESIASYYEVFAKGGFGLLITEGIYPDTKYSQGYLNQPGLATAQHADSWKPVVERVHTAGARIFAQLMHAGAQSQGNRYVTETIAPSTTPPLGEQLGFYGGTGPYATPRALSLRDIDDVCAGFAQAAQHAVAAGFDGVEIHGANGYLLDQFLTDYMNQRDDEYGGSLANRLKIYREVIAAVRQVVGSKVTVGVRISQSKVSDYNHRWAGGESDAAEIFQGLAETGVDYIHTTEFDATAPAFADSGTTLAAFATKYSGLPVIANGQLGDPAAADALIENGSAQVISLGKPALANRDWPQRALDAKPIQSDVDPSVFSPMATVKSWELSA
On to B3, for which the “Activity [U/mg protein] acrolein” value in data set [1] came out at 0.08 U/mg protein.

B4: SAV1511: OYE protein from Streptomyces avermitilis MA-4680 (protein)
chain: MSALFEPYSLRDLTIPNRVWMAPMCQYSAAPQGPAAGAPHDWHFAHYAARATGGTGLIVVEATAVSPEGRISPYDLGIWNDTQVEAFRRITRFLAAQGTVPAIQLAHGGRKASTDRPWKGGAPLAADEHGWQPLGPSPVAFDERHPVPTELSVAEIRQIVGQFADAARRALAAGFEIAEIHGAHGYLINEFLSPHSNRRTDEYGGSYENRVRFALEVVDAVREVWPAGKPLFFRVSATDWLDEGGWTADDTVRFAAELQAHGVDLLDVSTGGNASGVRIPTGPGYQVPFAARVKAGTSLPVAAVGLITDAEQAEKILANGEADAILLGRELLRNPSFARLAARELGGDVHVPAQYHRSV
Take B4: in data set [1], the “Activity [U/mg protein] 2-cyclohexen-1-one” value was found to be 0.23 U/mg protein and the “Activity [U/mg protein] acrolein” value is given as 0.05 U/mg protein.

B5: CV3501: OYE protein from Chromobacterium violaceum ATCC 12472 (protein)
chain: MNADKLLTPLTMGAVALSNRVVMAPLTRLRNIEPGDVPGPLAKEYYRQRASAGLIVAEGTHISPTAKGYAGAPGIYSEEQVRAWSEVTGAVHQDGGKIALQLWHTGRISHRSLQPNGDAPVGPSAIQADSRTNIRAADGSLVREQCDTPRALEIEEIEDIIEDYRRAADNARRAGFDMVEIHGAHGYLIDQFLSPAANVRTDQYGGSVENRARFLLEVVDAVVAEWDADHVGIRISPLGIFNGVSNTDQLDMALYLAEQLAKRKLAFLHISEPDWAGGPTLDDGFRAELRQRYPGVIIGAGGYSAEKAETLLKKGFIDAAAFGRSYIANPDLVERLKQNAPLNPPKPDTFYGGGAEGYTDYPTL
As for B5, the “Activity [U/mg protein] 2-cyclohexen-1-one” value in data set [1] turned out to be 0.07 U/mg protein.

B6: PSPH4058: OYE protein from Pseudomonas syringae phaseolicola 1448A (protein)
chain: MTTIFDPITIGDLQLPNRIIMAPLTRCRADEGRVPNALMSEYYVQRASAGLILTEATSVTPMGVGYPDTPGIWSNDQVRGWSNITKAVHTAGGRIVLQLWHVGRISHPAYLNGETPVAPSAIAAEGHVSLMRPITPLPTPRALELAEIGDIVEAYRVGAENAKAAGFDGVEVHGANGYLLEQFLLTGSNQRTDEYGGSVENRARLLLEVTDAVIEVWGAGRVGVHLSPRFDMHDMSDANRTETFSYVAKELGKRGIAFICARERDAEDSLGPQLKKDFGGVYIANEKFTKDTANTWLAEGKADAIAFGVPYIANPDLPERLASDAPLNEAHPETFYGKGPVGYIDYPRL
As to B6, the “Activity [U/mg protein] 2-cyclohexen-1-one” value in data set [1] turned out to be 0.22 U/mg protein.

B7: BH2491: aldehyde reductase (AR) from Bacillus halodurans (protein)
chain: MLQGKTAIVTGASRGIGRATAMELARHGANVVVNYAGNKEKAEKVVAEIKELGVEAIAIQADVADSESVQAMVKETIDTFGAVDILVNNAGITRDNLFMRMKEEDWDAVIDTNLKGVFHCSKAVTRPMMKQRFGRIINVSSVVGAIGNAGQANYVAAKAGVIGLTKTLARELANRNITVNAVAPGFIETDMTGELPEDVKAQMLGQIPLARLGQPEEVAKAVRFLASDDASYLTGQTIHVNGGMVM
For B7, the “Activity [U/mg protein] Butyraldehyde” value in data set [2] worked out at 0.108 ± 0.026 U/mg protein.

B8: PA1146: aldehyde reductase (AR) from Pseudomonas aeruginosa (protein)
chain: MSDLHYWNYPTDILCGVGALEQLPRRCALAGARRPLLVTDPGMRALEPLRLVRECLERAGIDHDLFHELSSNPSLAEVQGGARRFEAGGHDALIALGGGSALDAAKGIALLSRDPHGLERFEWTQTLRSYPTLADYPPLGLPPLLALPTTAGTGSELGREAVLTDTQLGIKRVVGHRELLAACVFLDPRLTRGLPPALSAATGMDALTHHLEALFSPLYHPMSAGIALEGVRLVRQHLENAVRDGNDLAAREGMLVASASAAVAFQKGLGGVHALAHPLGARHHLHHGLLNAVLLPYVLLANRPAIEADAARLARYLELDEASFDGLLAWILELRARIGIPANLAALGLDGEDAQWVGEQALADLSSSATNALPLDARDYARIYRQAVAGTLA
As for B8, in data set [2] (1.8% DMSO), the “Activity [U/mg protein] Adipaldehyde” value worked out at 0.696 ± 0.032 U/mg protein. In data set [2], the “Activity [U/mg protein] Butyraldehyde” value stood at 1.68 ± 0.144 U/mg protein.

B9: XCC0307: OYE protein from Xanthomonas campestris pv. campestris str. ATCC 33913 (protein)
chain: MSQLFTPINFGPLALANRIVIAPMCQYSAQDGRATDWHRIHLGTLSQSGAALLILEAAAVQPQGRISYADLGLYDDATEQALGEVLASVRRWSPMPIGIQLAHAGRKASTDLPWKGGEAIAPDHANGWQTVSASALPFRDGQPLPQALDAAGIDAVVEAFVTAAKRAERLELQLIELHAAHGYLMHQFLSPLSNQRSDAYGGSLDNRMRLTLRIFDAVRAAVSDQMAIGVRISATDWVDGGWDLPQSIALSKALDARGAHYIHVSSGGLDPRQQIPVQASYQIPFAEAIRAQVDTPVIGVGLITEPQQAEAILRDGQADAIALARGILYDPRWPWHAAAALGASVTPAPQYQRCEPREARGVFAS
Turning to B9, in data set [1], the “Activity [U/mg protein] 2-cyclohexen-1-one” value came to 0.15 U/mg protein.

The record behind these values is patent US12371675B2, “Process and microorganism for synthesis of adipic acid from carboxylic acids” (THE GOVERNING COUNCIL OF THE UNIVERSITY OF TORONTO, priority 2015, dated 2025).
